Laboratory results from patent US20250195685A1 (CAPSTAN THERAPEUTICS, published 2025).

What was measured:
[1] = target: T1, human CD8αα homodimer, recombinant protein (Acro Biosystems) (human, UniProt P01732 22-182); assay: BLI kinetic rate analysis, Fab fragment (temperature not given)
T1 construct: also called CD8αα antigen; biotinylated CD8α recombinant protein (CDA-H82E3)
Procedure: (§1) Biolayer interferometry kinetic assays were performed using a GatorBio Gator Plus BLI system. Kinetic buffer containing PBS plus 0.1% Tween 20 and 0.2% BSA was used for calculating the baseline. To measure the binding kinetics of anti-CD8α antibody fragment (Fab), streptavidin-immobilized SA-XT sensors (#160029, Gator Bio) were prehydrated in the kinetic buffer and loaded with […] biotinylated CD8α recombinant protein (CDA-H82E3, Acro Biosystems) at a spin speed of 400 rpm to a threshold response of 10 nm. The sensors were then incubated in the kinetic buffer for 300 s to acquire a baseline measurement prior to each association. […] The antigen-loaded sensors were incubated in the diluted solutions to capture Fab fragments for 300 s to record the association phase. Sensors were finally incubated in the kinetic buffer for 900 s to record the dissociation phase. The spin speed for all steps except the antigen loading step was 1000 rpm. The temperature of the performed assays was either 30° C. or 37° C. during the association and dissociation phases. Sensor data were baseline subtracted, and global curve fitting of the kinetic data from six different analyte concentrations at a 1:1 monovalent binding model was performed using GatorOne software (version v2.10) to determine kinetic rate constants (kₒₙ and koff) and equilibrium dissociation constants (KD) of the analyzed antibodies.

[2] = target: T1, human CD8αα homodimer, recombinant …; assay: BLI kinetic assay, engineered F(ab') fragment
Procedure: The global fitting was performed with a 1:1 fitting model using GatorOne software as described below.
as §1

[3] = target: T1, human CD8αα homodimer, recombinant …; assay: BLI steady state, whole hIgG1-LALAPA antibody on CD8α-His (Ni-NTA sensor), 30 °C
Procedure: (§2) To assess affinity of whole antibodies, steady state analysis was used as the bivalent nature of both whole antibody and CD8α complicates kinetic analysis. 50 nM CD8α-His (that is, CD8α with a C-terminal oligohistidine tag; Acro) was immobilized on Ni-NTA sensor probes. Binding was analyzed with a three-fold antibody dilutions series: 60 nM, 20 nM, 6.67 nM, 2.22 nM, 0.74 nM, and 0.25 nM. The antigen-loaded sensors were incubated in the diluted solutions to capture the whole IgG antibody for 300 s to record the association phase. Sensors were incubated in the kinetic buffer for 900 s to record the dissociation phase. The spin speed was 1000 rpm for all steps except the antigen loading step which was 400 rpm to control density of the antigen. The temperature of the performed assays was at 30° C. during the association and dissociation phases. The sensor data were baseline subtracted and further analyzed in GatorOne software (version 2.10) to determine the equilibrium dissociation constants (KD) of the antibodies by fitting the signals of the steady states to the 1:1 binding model.

[4] = target: T1, human CD8αα homodimer, recombinant …; assay: as above; remark: listed apart in the source
Procedure: as §2

[5] = target: T2, human CD8 on cells (CD8-overexpressing HEK293T cells, SupT1, HPB-ALL, human T cells, transfected HEK293 of … (human, UniProt P01732 22-235)); assay: flow cytometry on CD8-overexpressing HEK293T cells, non-linear fit of normalized gMFI
T2 construct: whole, on cells; also called cell surface CD8
T2 sequence (P01732 22-235): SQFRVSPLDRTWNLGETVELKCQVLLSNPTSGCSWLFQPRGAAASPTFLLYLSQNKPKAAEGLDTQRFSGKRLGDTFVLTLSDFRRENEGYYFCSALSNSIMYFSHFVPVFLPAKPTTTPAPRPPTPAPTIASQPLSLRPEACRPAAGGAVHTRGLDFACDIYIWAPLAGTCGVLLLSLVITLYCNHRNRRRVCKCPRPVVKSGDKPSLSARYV
Procedure: To obtain the results shown in FIG. 3A, that determined EC₅₀ values for antigen-specific binding, CD8-overexpressing HEK293T cells were dissociated in Versine solution (PBS buffer at pH 7.4 supplemented with 0.5 mM EDTA), and 2×10⁵ total cells were transferred to a V-bottom 96 well culture plate (Corning). Cells were washed twice with Cell Staining buffer (#420201, Biolegend). Each anti-CD8α antibody with human IgG1 isotype and Fc-silencing mutations L234A, L235A and P329A was diluted in four-fold antibody titration series from 100 μg/mL to 6.1 ng/ml into Cell Staining buffer. eFluor 780 Fixable Viability dye (eBioscience) was also included during antibody solutions at a 1:4000 dilution. Cells were stained with each diluted antibody solution for 30 minutes on ice. Cells were then washed three times with Cell Staining buffer and primary antibody binding was detected by staining with anti-human Fc BV421 conjugate antibody (#410704, Biolegend) at 1:100 dilution for 30 minutes on ice. After staining with the secondary detection antibody, cells were washed three times with Cell Staining buffer, fixed in FluoroFix buffer (Biolegend) and kept at 4° C. in the dark until analysis. Flow cytometry analysis on each sample was performed on an Agilent NovoCyte flow cytometer. Flow cytometry data was analyzed by Flowjo 10 (Becton, Dickinson & Company) to measure the geometric median fluorescence intensity (gMFI) of the on-cell binding from each antibody. The gMFI values were normalized with the gMFI measured in the sample stained with only the secondary detection antibody and plotted against the concentration of the added antibodies. The binding curves were constructed using the Graphpad Prism software, and EC₅₀ values were determined by non-linear curve fitting.

T1 sequence (P01732 22-182 limits assumed): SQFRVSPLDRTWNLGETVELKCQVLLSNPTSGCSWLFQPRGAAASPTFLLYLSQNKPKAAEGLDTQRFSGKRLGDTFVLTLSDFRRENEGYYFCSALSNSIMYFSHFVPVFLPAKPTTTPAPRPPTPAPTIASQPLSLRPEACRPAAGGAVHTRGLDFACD

B1: CBD1623 Fab (VL D30S and VH N55A of CBD1033) (Fab, V domains shown)
VH: QVQLVQSGAEVKKPGASVKVSCKASRYTFTDYNLHWVRQAPGQGLEWMGFIYPYAGGTGYAQKFQGRVTMTVDTSTSTAYMELSSLRSEDTAVYYCARDHRYNEGVSFDYWGQGTTVTVSS
VL: DIQLTQSPSSLSASVGDRATITCRASESVSGFGNSFMNWYQQKPGKAPKLLIYLASNLESGVPSRFSGSGSGTDFTLTISSVQPEDFATYYCQQNNEDPYTFGQGTKLEIK
notes: also called D30S and N55A
- Kd [1]: 0.617 nM
- koff [1]: 7.02e-05 s⁻¹
- kon [1]: 114000 M⁻¹ s⁻¹

B2: CBD1033.42 disulfide-engineered F(ab') analog (IgG1, truncated P240) (Fab, V domains shown)
VH: QVQLVQSGAEVKKPGASVKVSCKASRYTFTDYNLHWVRQAPGQGLEWMGFIYPYNGGTGYAQKFQGRVTMTVDTSTSTAYMELSSLRSEDTAVYYCARDHRYNEGVSFDYWGQGTTVTVSS
VL: DIQLTQSPSSLSASVGDRATITCRASESVDGFGNSFMNWYQQKPGKAPKLLIYLASNLESGVPSRFSGSGSGTDFTLTISSVQPEDFATYYCQQNNEDPYTFGQGTKLEIKR
notes: also called .42 design
- Kd [2]: 5.09 nM
- koff [2]: 6.41e-05 s⁻¹
- kon [2]: 12600 M⁻¹ s⁻¹

B3: CBD1033.44 disulfide-engineered F(ab') analog (IgG1, truncated T238) (Fab, V domains shown)
VH: QVQLVQSGAEVKKPGASVKVSCKASRYTFTDYNLHWVRQAPGQGLEWMGFIYPYNGGTGYAQKFQGRVTMTVDTSTSTAYMELSSLRSEDTAVYYCARDHRYNEGVSFDYWGQGTTVTVSS
VL: DIQLTQSPSSLSASVGDRATITCRASESVDGFGNSFMNWYQQKPGKAPKLLIYLASNLESGVPSRFSGSGSGTDFTLTISSVQPEDFATYYCQQNNEDPYTFGQGTKLEIKR
notes: also called .44 design
- Kd [2]: 7.23 nM
- koff [2]: 8.88e-05 s⁻¹
- kon [2]: 12300 M⁻¹ s⁻¹

B4: CBD1042 (antibody, human IgG1, kappa, L234A L235A, V domains shown)
VH: QVQLVQSGAEVKKPGASVKVSCKASRYTFTDYNLHWVRQAPGQGLEWIGFIYPYNGGTGYAQKFQGRVTITADTSTSTAYMELSSLRSEDTAVYYCARDHRYNEGVSFDYWGQGTLVTVSS
VL: EIVLTQSPGTLSLSPGERATLSCRASESVDGFGNSFMNWYQQKPGQAPRLLIYLASNLESGIPARFSGSGSGTDFTLTISRLEPEDFAVYYCQQNNEDPYTFGQGTKVEIKR
notes: also called h1017-H7/L4 whole antibody hIgG1-LALAPA
- Kd [3]: 3.59 nM

B5: CBD1033.45 disulfide-engineered F(ab') analog (IgG1, truncated T238, C233S) (Fab, V domains shown)
VH: QVQLVQSGAEVKKPGASVKVSCKASRYTFTDYNLHWVRQAPGQGLEWMGFIYPYNGGTGYAQKFQGRVTMTVDTSTSTAYMELSSLRSEDTAVYYCARDHRYNEGVSFDYWGQGTTVTVSS
VL: DIQLTQSPSSLSASVGDRATITCRASESVDGFGNSFMNWYQQKPGKAPKLLIYLASNLESGVPSRFSGSGSGTDFTLTISSVQPEDFATYYCQQNNEDPYTFGQGTKLEIKR
notes: also called .45 design
- Kd [2]: 9.03 nM
- koff [2]: 0.000117 s⁻¹
- kon [2]: 13000 M⁻¹ s⁻¹

B6: CBD1049 (antibody, human IgG1, kappa, L234A L235A, V domains shown)
VH: QVQLVQSGAEVKKPGASVKVSCKASRYTFTDYNLHWVRQAPGQGLEWIGFIYPYNGGTGYAQKFQGRVTLTVDYSTSTAYMELSSLRSEDTAVYYCARDHRYNEGVSFDYWGQGTLVTVSS
VL: EIVLTQSPGTLSLSPGERATLSCRASESVDGFGNSFMNWYQQKPGQAPRLLIYLASNLESGVPARFSGSGSGTDFTLTISRLEPEDFAVYYCQQNNEDPYTFGQGTKVEIKR
notes: also called h1017-H10/L5 whole antibody hIgG1-LALAPA
- Kd [3]: 3 nM

B7: CBD1050 (antibody, human IgG1, kappa, L234A L235A, V domains shown)
VH: QVQLVQSGAEVKKPGASVKVSCKASRYTFTDYNLHWVRQAPGQGLEWIGFIYPYNGGTGYAQKFQGRVTLTVDYSTSTAYMELSSLRSEDTAVYYCARDHRYNEGVSFDYWGQGTLVTVSS
VL: EIVLTQSPGTLSLSPGERATLSCRASESVDGFGNSFMNWYQQKPGQAPRLLIYLASNLESGVPARFSGSGSRTDFTLTISRLEPEDFAVYYCQQNNEDPYTFGQGTKVEIKR
notes: also called h1017-H10/L6 whole antibody hIgG1-LALAPA
- Kd [3]: 6.41 nM

B8: CBD1041 (antibody, human IgG1, kappa, L234A L235A, V domains shown)
VH: QVQLVQSGAEVKKPGASVKVSCKASRYTFTDYNLHWVRQAPGQGLEWMGFIYPYNGGTNYAQKFQGRVTITADTSTSTAYMELSSLRSEDTAVYYCARDHRYNEGVSFDYWGQGTLVTVSS
VL: EIVLTQSPGTLSLSPGERATLSCRASESVDGFGNSFMNWYQQKPGQAPRLLIYLASNLESGIPARFSGSGSGTDFTLTISRLEPEDFAVYYCQQNNEDPYTFGQGTKVEIKR
notes: also called h1017-H6/L4 whole antibody hIgG1-LALAPA
- Kd [3]: 10.2 nM

B9: CBD1045 (antibody, human IgG1, kappa, L234A L235A, V domains shown)
VH: QVQLVQSGAEVKKPGASVKVSCKASRYTFTDYNLHWVRQAPGQGLEWIGFIYPYNGGTGYAQKFKGRVTITADTSTSTAYMELSSLRSEDTAVYYCARDHRYNEGVSFDYWGQGTLVTVSS
VL: EIVLTQSPGTLSLSPGERATLSCRASESVDGFGNSFMNWYQQKPGQAPRLLIYLASNLESGVPARFSGSGSGTDFTLTISRLEPEDFAVYYCQQNNEDPYTFGQGTKVEIKR
notes: also called h1017-H8/L5 whole antibody hIgG1-LALAPA
- Kd [3]: 4.18 nM

B10: CBD1036-hIgG1-LALAPA (antibody, V domains shown)
VH: QVQLVQSGAEVKKPGASVKISCKASRYTFTDYNLHWVRQAPGQGLEWIGFIYPYNGGTGYAQKFQGRATLTVDTSTSTAYMELSSLRSEDTAVYYCARDHRYNEGVSFDYWGQGTTLTVSS
VL: DIQLTQSPSSLSASVGDRATITCRASESVDGFGNSFMNWYQQKPGKAPKLLIYLASNLESGVPSRFSGSGSRTDFTLTISSVQPEDFATYYCQQNNEDPYTFGQGTKLEIKR
notes: also called h1017-H3/L3 whole antibody
- Kd [4]: 5.15 nM
- EC50 [5]: 2.69 nM

B11: CBD1048 (antibody, human IgG1, kappa, L234A L235A, V domains shown)
VH: QVQLVQSGAEVKKPGASVKVSCKASRYTFTDYNLHWVRQAPGQGLEWMGFIYPYNGGTGYAQKFQGRVTLTVDYSTSTAYMELSSLRSEDTAVYYCARDHRYNEGVSFDYWGQGTLVTVSS
VL: EIVLTQSPGTLSLSPGERATLSCRASESVDGFGNSFMNWYQQKPGQAPRLLIYLASNLESGVPARFSGSGSRTDFTLTISRLEPEDFAVYYCQQNNEDPYTFGQGTKVEIKR
notes: also called h1017-H9/L6 whole antibody hIgG1-LALAPA
- Kd [3]: 5.45 nM

B12: CBD1047 (antibody, human IgG1, kappa, L234A L235A, V domains shown)
VH: QVQLVQSGAEVKKPGASVKVSCKASRYTFTDYNLHWVRQAPGQGLEWMGFIYPYNGGTGYAQKFQGRVTLTVDYSTSTAYMELSSLRSEDTAVYYCARDHRYNEGVSFDYWGQGTLVTVSS
VL: EIVLTQSPGTLSLSPGERATLSCRASESVDGFGNSFMNWYQQKPGQAPRLLIYLASNLESGVPARFSGSGSGTDFTLTISRLEPEDFAVYYCQQNNEDPYTFGQGTKVEIKR
notes: also called h1017-H9/L5 whole antibody hIgG1-LALAPA
- Kd [3]: 2.72 nM

B13: CBD1046 (antibody, human IgG1, kappa, L234A L235A, V domains shown)
VH: QVQLVQSGAEVKKPGASVKVSCKASRYTFTDYNLHWVRQAPGQGLEWIGFIYPYNGGTGYAQKFKGRVTITADTSTSTAYMELSSLRSEDTAVYYCARDHRYNEGVSFDYWGQGTLVTVSS
VL: EIVLTQSPGTLSLSPGERATLSCRASESVDGFGNSFMNWYQQKPGQAPRLLIYLASNLESGVPARFSGSGSRTDFTLTISRLEPEDFAVYYCQQNNEDPYTFGQGTKVEIKR
notes: also called h1017-H8/L6 whole antibody hIgG1-LALAPA
- Kd [3]: 9.78 nM

B14: CBD1044 (antibody, human IgG1, kappa, L234A L235A, V domains shown)
VH: QVQLVQSGAEVKKPGASVKVSCKASRYTFTDYNLHWVRQAPGQGLEWIGFIYPYNGGTGYAQKFQGRVTITADTSTSTAYMELSSLRSEDTAVYYCARDHRYNEGVSFDYWGQGTLVTVSS
VL: EIVLTQSPGTLSLSPGERATLSCRASESVDGFGNSFMNWYQQKPGQAPRLLIYLASNLESGVPARFSGSGSRTDFTLTISRLEPEDFAVYYCQQNNEDPYTFGQGTKVEIKR
notes: also called h1017-H7/L6 whole antibody hIgG1-LALAPA
- Kd [3]: 8.65 nM
